Legend:
Assay in all cases: cell-based or functional assay
[1] = molecular target: human MASP-2 (endogenous, in normal human serum) (human, UniProt O00187 16-686)
[2] = molecular target: dog MASP-2 (endogenous, in dog serum) (dog)
[3] = molecular target: mouse MASP-2 (endogenous, in mouse serum or hirudin plasma) (mouse, UniProt Q91WP0 20-685)
mouse MASP-2 (endogenous, in mouse serum or hirudin plasma), sequence (Q91WP0 20-685 limits assumed): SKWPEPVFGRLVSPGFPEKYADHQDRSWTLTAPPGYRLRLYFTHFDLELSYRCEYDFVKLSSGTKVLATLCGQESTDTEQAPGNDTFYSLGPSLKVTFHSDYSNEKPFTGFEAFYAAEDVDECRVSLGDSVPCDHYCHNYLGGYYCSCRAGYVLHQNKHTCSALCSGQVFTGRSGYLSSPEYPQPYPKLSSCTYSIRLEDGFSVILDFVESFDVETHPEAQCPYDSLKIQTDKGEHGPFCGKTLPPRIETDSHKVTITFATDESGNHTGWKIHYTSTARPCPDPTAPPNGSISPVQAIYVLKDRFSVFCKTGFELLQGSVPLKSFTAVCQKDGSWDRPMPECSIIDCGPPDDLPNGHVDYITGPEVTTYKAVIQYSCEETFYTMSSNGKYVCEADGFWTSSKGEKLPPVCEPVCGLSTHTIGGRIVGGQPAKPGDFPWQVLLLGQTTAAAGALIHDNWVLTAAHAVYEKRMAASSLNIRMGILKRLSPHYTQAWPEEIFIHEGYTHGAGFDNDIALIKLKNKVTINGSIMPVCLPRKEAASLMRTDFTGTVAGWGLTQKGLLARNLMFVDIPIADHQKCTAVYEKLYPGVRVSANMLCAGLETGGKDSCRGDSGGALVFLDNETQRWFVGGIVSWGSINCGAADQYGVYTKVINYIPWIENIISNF

dog MASP-2 (endogenous, in dog serum) (dog), sequence (chain, as listed by the source limits assumed): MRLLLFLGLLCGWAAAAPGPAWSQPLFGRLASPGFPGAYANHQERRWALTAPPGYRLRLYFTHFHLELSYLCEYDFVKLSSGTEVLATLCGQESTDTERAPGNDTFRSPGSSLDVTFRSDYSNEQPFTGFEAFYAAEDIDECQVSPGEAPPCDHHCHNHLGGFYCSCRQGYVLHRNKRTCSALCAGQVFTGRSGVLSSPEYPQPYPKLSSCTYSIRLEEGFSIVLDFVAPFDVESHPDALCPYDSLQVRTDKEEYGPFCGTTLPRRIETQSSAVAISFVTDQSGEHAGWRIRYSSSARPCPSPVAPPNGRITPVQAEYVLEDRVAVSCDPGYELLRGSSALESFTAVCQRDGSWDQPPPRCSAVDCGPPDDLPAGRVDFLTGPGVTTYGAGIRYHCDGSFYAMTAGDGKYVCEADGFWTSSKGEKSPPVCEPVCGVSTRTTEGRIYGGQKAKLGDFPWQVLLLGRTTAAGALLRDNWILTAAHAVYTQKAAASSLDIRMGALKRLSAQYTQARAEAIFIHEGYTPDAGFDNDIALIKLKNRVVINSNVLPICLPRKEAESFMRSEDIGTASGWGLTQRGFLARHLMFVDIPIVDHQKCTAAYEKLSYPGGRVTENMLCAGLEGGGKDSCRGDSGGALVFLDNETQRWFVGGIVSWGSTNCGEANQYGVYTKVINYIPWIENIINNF
human MASP-2 (endogenous, in normal human serum), sequence (O00187 16-686 limits assumed): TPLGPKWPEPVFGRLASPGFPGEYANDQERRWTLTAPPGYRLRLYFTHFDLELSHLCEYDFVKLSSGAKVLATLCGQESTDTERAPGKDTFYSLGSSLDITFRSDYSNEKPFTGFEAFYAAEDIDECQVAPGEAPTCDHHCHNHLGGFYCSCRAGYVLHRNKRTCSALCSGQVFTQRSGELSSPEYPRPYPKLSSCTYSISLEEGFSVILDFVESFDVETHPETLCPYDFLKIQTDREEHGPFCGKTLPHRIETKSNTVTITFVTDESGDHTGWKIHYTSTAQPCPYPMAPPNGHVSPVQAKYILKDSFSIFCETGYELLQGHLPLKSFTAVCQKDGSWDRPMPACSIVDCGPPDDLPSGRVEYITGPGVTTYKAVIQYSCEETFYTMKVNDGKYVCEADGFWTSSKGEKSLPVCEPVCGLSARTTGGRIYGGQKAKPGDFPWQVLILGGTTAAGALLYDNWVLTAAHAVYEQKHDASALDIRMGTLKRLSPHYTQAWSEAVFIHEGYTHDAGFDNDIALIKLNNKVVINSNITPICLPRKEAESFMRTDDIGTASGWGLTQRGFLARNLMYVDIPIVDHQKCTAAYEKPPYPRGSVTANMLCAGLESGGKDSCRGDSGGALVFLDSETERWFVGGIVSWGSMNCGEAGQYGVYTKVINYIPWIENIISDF

C5b-9 deposition, lectin pathway-specific conditions (Wieslab), human serum, IC50 [1]: 0.81 nM
MAC deposition under lectin pathway-specific conditions (Wieslab COMPL300), IC50 [1]: ~1 nM
lectin-dependent C4 activation in 50% dog serum, IC50, Experiment 1 [2]: > 500 nM
lectin-dependent C4 activation in 50% dog serum, IC50, Experiment 2 [2]: > 500 nM
lectin-dependent C4 activation in 50% dog serum, IC50, Experiment 3 [2]: > 500 nM
lectin-dependent C4 activation in 50% mouse hirudin plasma, IC50, Experiment 1 [3]: 9.59 nM
lectin-dependent C4 activation in 50% mouse hirudin plasma, IC50, Experiment 2 [3]: 11.2 nM
lectin-dependent C4 activation in 50% mouse hirudin plasma, IC50, Experiment 3 [3]: 14.8 nM
lectin-dependent C4 activation in 50% mouse hirudin plasma, IC50, MEAN [3]: 11.9 nM
B1: mAb OMS858 (humanized anti-MASP-2 antibody) (antibody, V domains shown)
VH: QVQLVQSGAEVKKPGASVKVSCKASGYTFTNHHMHWLRQAPGQGLEWIGDIDASDSETHYIEKFKDRATLTIDKSSSTAYMELSSLRSEDTAVYYCARGDITTTLRYFDVWGQGTLVTVSS
VL: DIQLTQSPSSLSASVGDRVTITCSASSSVRYMYWYQQKPGKAPKLLIYDTSNLASGVPSRFSGSGSGTDNTLTISSLQPEDFATYYCQQWSSYPLTFGQGTKVEIKR
notes: also called antibody OMS858; biotinylated OMS858

Reference: patent US20230265215A1 (OMEROS, published 2023)
